Data on 39 sequences can be found in the supplement of paper PMC9170038.

The test system of data set [1] is MS2 coat protein. Briefly: apparent KD of MS2 coat protein, switch ON state; designed switch direction (-1 OFF switch, 1 ON switch): -1; higher = weaker reporter binding. The settings on record: FMN input: 0 or 200 uM; Eterna round: R93 (includes R88 designs). The procedure, abridged: (§1)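 On-chip transcription from Illumina sequencing clusters produced the designed RNA switches. These were titrated with SNAP-549-labelled MS2 coat protein (twofold steps, 0.7 or 1.5 nM to 3 µM) in 100 mM Tris-HCl pH 7.5, 80 mM KCl, 4 mM MgCl2, with or without constant ligand. The apparent KD given is the per-design median of normalised cluster binding-curve fits.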

Data set [2] relates to MS2 coat protein. Briefly: apparent KD of MS2 coat protein, switch OFF state (with FMN for OFF switches, without FMN for ON switches); designed switch direction (-1 OFF switch, 1 ON switch): -1; higher = weaker reporter binding. The settings on record: FMN input: 0 or 200 uM; Eterna round: R93 (includes R88 designs). The procedure, abridged:
as §1

Consider “GAAAAGUGAGGAUAUACAUGAGGAUCACCCAUGUGUAUAAAAAAUUACACAAAAGAAAGUAGAAGGCACUAAAG [Mat - Exclusion 3 - Mayanna mod - D113]”, for which the “apparent KD of MS2 coat protein” value in data set [1] amounted to 17.7 nM; in data set [2] it was 26.5 nM.

Consider “AAAAAUGGAGGAUAUACAUGAGGAUCACCCAUGUGUGGGCAUACUGUGUCGGCGUCAGGUAGAAGGCCAAAAAA [Gilly Gone Silly 27 - Jieux - Exclusion 3]”, for which the “apparent KD of MS2 coat protein” value in data set [1] was 36.5 nM; in data set [2], 47.8 nM.

As for “AACAGUACAGGAUAUACAUGAGGAUCACCCAUGUGGGAGAAAAGAUCGAGAGAUCAAUGUAGAAGGGUACUGGA [JL In the Red 07]”, the results for the “apparent KD of MS2 coat protein” value in data set [1] and in data set [2] were 115 nM and 80.1 nM, respectively.

Regarding “AAAAAACAUGAGGAUCACCCAUGUCAGGAUAUGCUCAACAAUAUUCCAAAAAAGAACGGUAGAAGGGACAGGAA [Bilbo Confounded 25 - Jieux - Exclusion 1]”, the “apparent KD of MS2 coat protein” value was found to be 30.4 nM in data set [1] and 22.3 nM in data set [2].

As to “AGCUAGUCAGGAUAUACGAGAAUGAAAGAAGACGUGAAGGGACAUGAGGAUCACCCAUGUAGAAGGGACUAGCA [Diamond 25]”, the “apparent KD of MS2 coat protein” value in data set [1] amounted to 36.1 nM; in data set [2], 80.3 nM.

With “AAAAAACAUGAGGAUCACCCAUGUAAGGAUAUGCUAAAAAACGCAAAAAAAGCGAAUAGCAGAAGGUACAAAAG [Mat - Exclusion 1 - Eli mod - D81]”, the “apparent KD of MS2 coat protein” value was found to be 36.4 nM in data set [1] and 70.5 nM in data set [2].

Regarding “AACUGACAUGAGGAUCACCCAUGUCAGGAUAUGAUUUGACGAAAAAAAAAAAGUCAUAUCAGAAGGGACAUGGG [Design 82: Sub-opt V]”, the entries for the “apparent KD of MS2 coat protein” value in data set [1] and in data set [2] were 19 nM and 17.6 nM, respectively.

Turning to “AAGAAGUGAGGAUAUCGAAGACAGACGAAAAGUCUGUCAAACGAGAAGGCACAUGAGGAUCACCCAUGUGGAAA [What have we learned so far? 64% 4]”, the “apparent KD of MS2 coat protein” value in data set [1] turned out to be 30.5 nM; in data set [2], 34.6 nM.

Turning to “AGGGAACAUGAGGAUCACCCAUGUGAGGAUAUUCAAAAGAAAAGAAAAGAAAGAAGAAGAAGAAGGUACAAGAA [Neferkare Pepi II]”, the “apparent KD of MS2 coat protein” value worked out at 42.9 nM in data set [1] and 36.9 nM in data set [2].

Turning to “GGUUGGCGAGGAUAUACAUGAGGAUCACCCAUGUGAGAGAAAAAAGUGAGUAAGAAAAGUAGAAGGCGCUGACG [salish99-ex3-33]”, the “apparent KD of MS2 coat protein” value in data set [1] is 49.9 nM; in data set [2], 4710 nM.

As to “AAUAAGUGAGGAUAUGUGAAUAGAAGAUAAGAUACCCAAAAACAGAAGGCACAUGAGGAUCACCCAUGUAAAUA [JR_Exc004_Sub009]”, the “apparent KD of MS2 coat protein” value was determined as 33.7 nM in data set [1] and 24.3 nM in data set [2].

Turning to “AAAAUACAUGAGGAUCACCCAUGUGAGGAUAUGCAAAACCCAUAUAAAAAGGGAAAAAGCAGAAGGCACAAAAA [wbt round 1 mod 15]”, the “apparent KD of MS2 coat protein” value in data set [1] stood at 33 nM; in data set [2], 52.9 nM.

Regarding “AAAAAGGGAGGAUAUACAUGAGGAUCACCCAUGUAACAGACGAAAAAGAGUCUGAAAAGUAGAAGGCCCAAAAA [65%, Moding Exclusion3-cac2, 7]”, the “apparent KD of MS2 coat protein” value was 24.7 nM in data set [1] and 19.2 nM in data set [2].

On to “AAAAAGUCAGGAUAUGCGAAGGCGUCUGAUAGACGAGGCUAGCAGAAGGGACAUGAGGAUCACCCAUGUAAAAA [Mat - Exclusion 4 - Rerun - D81]”, for which the “apparent KD of MS2 coat protein” value was determined as 50.5 nM in data set [1] and 45 nM in data set [2].

For “AAAAAACAUGAGGAUCACCCAUGUCAGGAUAUCUGUAUUCAAUCCUCGGAUUGAAUACAGAGAAGGGACAUGGG [Ex1: 601]”, the “apparent KD of MS2 coat protein” value in data set [1] worked out at 22.6 nM; in data set [2], 18 nM.

In the case of “AAACGUAGAGGAUAUACAUAAGUAUUACGAAAGUAAUACAAACAUGAGGAUCACCCAUGUAGAAGGCUACGAAA [MOD2 of Meechl's MS2 Ex2 (MS2 riboswitches - Exlclusion 2)]”, the “apparent KD of MS2 coat protein” value in data set [1] was determined as 24.9 nM; in data set [2] it was 28 nM.

Consider “AUAGGCCUAGGAUAUACAUGAGGAUCACCCAUGUUAAUAUUUCAAACAUGAUAAACGUGUAGAAGGAGGAAUAA [JR_Exc003_Sub303]”, for which the “apparent KD of MS2 coat protein” value in data set [1] amounted to 41.7 nM; in data set [2] it was 50.8 nM.

With “CGCUAGUCAGGAUAUACGAACAUGUCAAAAGACGUGAAAAAACAUGAGGAUCACCCAUGUAGAAGGGACUAGCG [Mat - Exclusion 2 - JL mod - D17]”, the “apparent KD of MS2 coat protein” value turned out to be 16.2 nM in data set [1] and 14.9 nM in data set [2].

Consider “GAAAAGUCAGGAUAUGCGAAGGCGUCUGAUAGACGAGGCUAGCAGAAGGGACAUGAGGAUCACCCAUGUGAAAG [Mat - Exclusion 4 - Eli mod - D87]”, for which the “apparent KD of MS2 coat protein” value in data set [1] worked out at 54.6 nM; in data set [2] it was 128 nM.

Consider “AGUUGGCGAGGAUAUACAUGAGGAUCACCCAUGUGAGAGAAAAAAGUGAGAAAGAAAAGUAGAAGGCGCUCACA [JL Lego Mod 12]”, for which the “apparent KD of MS2 coat protein” value in data set [1] is 62.1 nM; in data set [2], 49.7 nM.

Take “AGUCGGCGAGGAUAUACAUGAGGAUCACCCAUGUGAGAGAAAAAAGUGAGAAAGAAAUGUAGAAGGCGCUGACA [JL Lego Mod 1]”: the results for the “apparent KD of MS2 coat protein” value in data set [1] and in data set [2] were 90.8 nM and 36.8 nM, respectively.

Consider “GAAAAGUCAGGAUAUGUACAAAAUAAAAUAAAAAUAAAAGUACAGAAGGGACAUGAGGAUCACCCAUGUAAAAA [Mat - Exclusion 4 - Mayanna - D119]”, for which the “apparent KD of MS2 coat protein” value in data set [1] came to 47.3 nM; in data set [2], 49.8 nM.

For the sequence “UAGAACCUAGGAUAUACUUGGGAAACUAAUGCAAAGAUAUAACAUGAGGAUCACCCAUGUAGAAGGAGGAGUAA [JR_Exc002_Sub019]”, the “apparent KD of MS2 coat protein” value was determined as 84.5 nM in data set [1] and 132 nM in data set [2].

Consider “AGCUAGUCAGGAUAUACGAACAGGUCAAAAGACGUAAGGGAACAUGAGGAUCACCCAUGUAGAAGGGACUAGCA [Diamond 52]”, for which the “apparent KD of MS2 coat protein” value in data set [1] worked out at 32.9 nM; in data set [2], 84.3 nM.

For “AAAUGACAUGAGGAUCACCCAUGUCAGGAUAUGACUUGAAAAUAAAAUAAAAAACAUGUCAGAAGGGACAUGAA [Design 49: Sub-opt EB]”, the “apparent KD of MS2 coat protein” value worked out at 13.5 nM in data set [1] and 12.4 nM in data set [2].

With “AAAGGACAUGAGGAUCACCCAUGUGAGGAUAUGCUCUACGAACGAAUACACAUGAGAAGCAGAAGGCACAUAAG [try 1]”, the “apparent KD of MS2 coat protein” value turned out to be 43.8 nM in data set [1] and 142 nM in data set [2].

With “AAAAAGUGAGGAUAUAGCAAAGGUCACGAAAGUGACAAAGGCUAGAAGGCACAUGAGGAUCACCCAUGUCCAAG [Mat - Exclusion 4 - Eli mod - D98]”, the “apparent KD of MS2 coat protein” value came out at 28.6 nM in data set [1] and 56.5 nM in data set [2].

With “AAGAAACAUGAGGAUCACCCAUGUGAGGAUAUAGAAAAGAAAAGAAAAGAAAGAAGAACUAGAAGGCACAAAGG [Neferkare (IV) Khendu]”, the “apparent KD of MS2 coat protein” value in data set [1] turned out to be 31.1 nM; in data set [2], 28.8 nM.

“AACAAACAUGAGGAUCACCCAUGUGAGGAUAUGAAAAUAAAUAAAAAUAAAAUAAAAAUCAGAAGGCACAACAA [JR_Exc001_Sub003]”: the “apparent KD of MS2 coat protein” value in data set [1] came to 25.6 nM; in data set [2], 28.2 nM.

For the sequence “AAGAACGGAGGAUAUACAAAAUAAAAGAAAAGAAAGAAAGAACAUGAGGAUCACCCAUGUAGAAGGCUGAAGAA [Merneferre Ay I]”, the “apparent KD of MS2 coat protein” value in data set [1] came to 35.7 nM; in data set [2], 35.2 nM.

Take “AGAAAACAUGAGGAUCACCCAUGUCAGGAUAUCCAAAUAAAAAUAAAAUAAAAUAAAAGGAGAAGGGACAAAAG [May 1]”: the results for the “apparent KD of MS2 coat protein” value in data set [1] and in data set [2] were 49.2 nM and 66.9 nM, respectively.

As to “AAAAAUUGAGGAUAUACAUGAGGAUCACCCAUGUUAGAACAAAAAAAAGGGAAAGAAAGUAGAAGGCAAUAAAA [Ex 3 May 26]”, the entries for the “apparent KD of MS2 coat protein” value in data set [1] and in data set [2] were 20 nM and 26.9 nM, respectively.

Regarding “GCUUGGCAAGGAUAUACAUGAGGAUCACCCAUGUGAGAGAAAAAAGUGAGAAAGAAAAGUAGAAGGUGCUGAGG [salish99-ex3-109]”, the “apparent KD of MS2 coat protein” value amounted to 42.6 nM in data set [1] and 82.2 nM in data set [2].

For the sequence “AAAAAGUGAGGAUAUUCGGAAGGGAAAGCGCAAACCCAACCGAAGAAGGCACAUGAGGAUCACCCAUGUGGAAG [Mat - Exaclusion 4 - Eli mod - D57]”, the results for the “apparent KD of MS2 coat protein” value in data set [1] and in data set [2] were 29.5 nM and 30.2 nM, respectively.

In the case of “ACCAGACAUGAGGAUCACCCAUGUCAGGAUAUGCAUCUUAGGAAAAAAAAACUAAGAUGCAGAAGGGACAAGGG [Design 5: Super Stable - A-U mutation]”, the “apparent KD of MS2 coat protein” value was 16 nM in data set [1] and 20.1 nM in data set [2].

For the sequence “AGUGAGUGAGGAUAUGACUGAAGAAUAAAAGAAAUAACAAGUCAGAAGGCACAUGAGGAUCACCCAUGUACACA [May 60]”, the results for the “apparent KD of MS2 coat protein” value in data set [1] and in data set [2] were 28.8 nM and 25.6 nM, respectively.

As to “CAGUACUGAGGAUAUACAUGAGGAUCACCCAUGUGAUCAAGCUACGAAAGUAGCAAAUGUAGAAGGCAGUACUG [Ex3: 809]”, the “apparent KD of MS2 coat protein” value in data set [1] is 40.7 nM; in data set [2] it was 31.7 nM.

Take “AGAAACGUAGGAUAUACAUGAGGAUCACCCAUGUAAAGAAAGAAGGGAGCCACAAGAAGUAGAAGGACGAAGAA [JR_Exc003_Sub004]”: the “apparent KD of MS2 coat protein” value was determined as 33.4 nM in data set [1] and 131 nM in data set [2].

Consider “AACGUACAUGAGGAUCACCCAUGUUAGGAUAUAUAUACAGGAAAACAUUCUAAUGUAAAUAGAAGGAACGAAAA [Bilbo Confounded 21 - Jieux - Exclusion 1]”, for which the results for the “apparent KD of MS2 coat protein” value in data set [1] and in data set [2] were 17.1 nM and 10.8 nM, respectively.
